Test results from patent US20060172938.

System: T1, cyclic peptide CDMWERVSRC
T1 sequence: CDMWERVSRC

Chain of Native seprase isolated from LOX cells (chain): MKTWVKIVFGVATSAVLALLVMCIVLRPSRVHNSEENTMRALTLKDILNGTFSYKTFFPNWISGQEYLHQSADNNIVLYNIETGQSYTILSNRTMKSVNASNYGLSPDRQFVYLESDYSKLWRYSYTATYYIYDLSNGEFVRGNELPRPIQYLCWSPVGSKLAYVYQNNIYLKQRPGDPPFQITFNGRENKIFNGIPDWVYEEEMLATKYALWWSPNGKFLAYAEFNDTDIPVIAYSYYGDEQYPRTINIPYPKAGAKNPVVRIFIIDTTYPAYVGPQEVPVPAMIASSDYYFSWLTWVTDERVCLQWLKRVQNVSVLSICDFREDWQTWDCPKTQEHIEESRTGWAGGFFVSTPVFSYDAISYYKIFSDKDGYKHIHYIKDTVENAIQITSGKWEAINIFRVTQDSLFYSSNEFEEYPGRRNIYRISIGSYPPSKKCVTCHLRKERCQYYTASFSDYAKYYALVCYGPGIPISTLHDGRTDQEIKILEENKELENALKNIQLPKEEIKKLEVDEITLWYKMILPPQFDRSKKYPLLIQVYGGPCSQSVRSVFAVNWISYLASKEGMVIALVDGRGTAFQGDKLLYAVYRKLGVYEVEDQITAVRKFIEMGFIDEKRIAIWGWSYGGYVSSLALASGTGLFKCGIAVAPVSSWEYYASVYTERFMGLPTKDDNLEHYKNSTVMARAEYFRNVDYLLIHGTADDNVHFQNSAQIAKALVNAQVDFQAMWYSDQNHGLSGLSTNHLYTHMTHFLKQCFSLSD

Native seprase isolated from LOX cells
increase of the catalytic Km for Gly-Pro-pNA (Lineweaver-Burke analysis): When the concentration of CDMWERVSRC [SEQ ID NO: 3] was 62.5 mM, the catalytic Km value increased by 5 times (from 0.7 mM to 3.5 mM)
